Source: PMC2821400

Target: actin of the F-actin structures in focal adhesions of Vero cells (monkey (endogenous in Vero)) (UniProt Q76N69)
Assay: FRAP (fluorescence recovery after photobleaching); GFP-L-plastin variants bleached in a 5 µm spot in focal adhesions of live Vero cells, 37°C; curves fitted with a two-binding-state model, reaction dominant regime; pseudo-association rates k*on = kon·Seq

Row | fold change of k*2on against WT- and S5/E-L-plastin [fold lower] | k1off (dissociation rate, first quick binding state) [s⁻¹] | k*1on (pseudo-association rate, first quick binding state) [s⁻¹] | Feq (equilibrium normalized concentration of free molecules) | k2off (dissociation rate, second slow binding state) [s⁻¹] | k*2on (pseudo-association rate, second slow binding state) [s⁻¹] | Substance
1 | 2 | 0.073 | 0.173 |  |  |  | Ser5/Ala (S5/A) GFP-L-plastin, expressed in Vero cells (from UniProt P13796 1-627) (natural protein)
2 |  | 0.612 | 0.42 |  |  |  | Ser5/Glu (S5/E) GFP-L-plastin, expressed in Vero cells (from UniProt P13796 1-627) (natural protein)
3 |  | 0.616 | 0.338 | 0.513 | 0.03 | 0.01 | wild type (WT) L-plastin fused to GFP, expressed in Vero cells (from UniProt P13796 1-627) (natural protein)
